Data from article PMC8130932 (PLoS Pathogens, 2021).

How the values were obtained:
[1] = target: T1, SARS nucleocapsid, recombinant (SARS-CoV, reference sequence (strain …, UniProt P59595)); assay: ELISA
T1 construct: source: bought: Sino Biologicals, baculovirus-insect cells

[2] = target: SARS-CoV-2 nucleocapsid, recombinant (SARS-CoV-2, reference sequence, UniProt P0DTC9); assay: ELISA
[3] = target: SARS-CoV-2 spike glycoprotein of wild-type virus, in infected Vero E6 cells (SARS-CoV-2 …, UniProt P0DTC2); assay: cell-based or functional assay
[4] = target: T2, SARS-CoV-2 RBD (amino acids 340-538) on MDCK-SIAT1 cells (SARS-CoV-2 (so in the source)); assay: flow cytometry on cells; conditions: one partner purified
T2 construct: also called MDCK-RBD; source: MDCK-SIAT1, stably transduced (lentiviral vector), on the cell surface

[5] = target: T3, SARS-CoV-2 NTD on MDCK-SIAT1 cells (SARS-CoV-2 (so in the source)); assay: flow cytometry on cells; conditions: one partner purified
T3 construct: also called MDCK-NTD

[6] = target: T4, Human coronavirus OC43 spike glycoprotein S1+S2 extracellular domain (Human coronavirus OC43, AVR40344.1 (by …)); assay: ELISA
T4 construct: source: bought: Sino Biologicals
T4 chain: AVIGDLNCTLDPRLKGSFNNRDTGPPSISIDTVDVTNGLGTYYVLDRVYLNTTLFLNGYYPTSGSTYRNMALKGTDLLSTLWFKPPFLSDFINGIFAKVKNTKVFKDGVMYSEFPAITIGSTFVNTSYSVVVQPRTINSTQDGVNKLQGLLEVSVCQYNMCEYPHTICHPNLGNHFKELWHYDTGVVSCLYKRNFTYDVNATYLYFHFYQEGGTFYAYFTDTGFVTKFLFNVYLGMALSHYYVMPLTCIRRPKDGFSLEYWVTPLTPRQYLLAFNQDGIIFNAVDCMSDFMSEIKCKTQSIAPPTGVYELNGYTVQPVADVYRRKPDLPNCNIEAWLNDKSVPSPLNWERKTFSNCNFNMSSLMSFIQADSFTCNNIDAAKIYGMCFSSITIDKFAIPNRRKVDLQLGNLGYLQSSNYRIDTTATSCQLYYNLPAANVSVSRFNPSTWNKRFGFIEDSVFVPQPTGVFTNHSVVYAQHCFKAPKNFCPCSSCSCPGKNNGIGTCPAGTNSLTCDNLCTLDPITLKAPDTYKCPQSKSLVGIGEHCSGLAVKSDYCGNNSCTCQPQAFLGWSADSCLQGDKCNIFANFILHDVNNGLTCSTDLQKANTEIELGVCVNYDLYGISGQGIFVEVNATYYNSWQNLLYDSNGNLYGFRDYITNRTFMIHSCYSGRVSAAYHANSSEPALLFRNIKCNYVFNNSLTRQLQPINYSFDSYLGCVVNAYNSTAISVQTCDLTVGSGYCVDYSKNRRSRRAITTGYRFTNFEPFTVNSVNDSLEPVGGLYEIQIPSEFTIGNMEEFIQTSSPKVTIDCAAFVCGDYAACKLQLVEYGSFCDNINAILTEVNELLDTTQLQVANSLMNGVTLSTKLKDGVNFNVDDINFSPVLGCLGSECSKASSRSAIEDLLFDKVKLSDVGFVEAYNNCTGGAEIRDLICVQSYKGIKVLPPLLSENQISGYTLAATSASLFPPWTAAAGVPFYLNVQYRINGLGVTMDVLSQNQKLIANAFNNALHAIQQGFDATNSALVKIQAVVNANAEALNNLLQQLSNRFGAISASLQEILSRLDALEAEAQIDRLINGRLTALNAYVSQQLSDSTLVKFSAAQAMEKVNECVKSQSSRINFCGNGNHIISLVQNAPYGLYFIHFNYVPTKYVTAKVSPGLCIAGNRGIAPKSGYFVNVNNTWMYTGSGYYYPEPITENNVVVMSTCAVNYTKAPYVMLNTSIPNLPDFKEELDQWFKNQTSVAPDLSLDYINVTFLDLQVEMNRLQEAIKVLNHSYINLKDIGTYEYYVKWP

[7] = target: T5, SARS-CoV-2 spike S2 subunit, recombinant (SARS-CoV-2, reference sequence, UniProt P0DTC2); assay: ELISA
T5 construct: source: bought: Sino Biologicals, baculovirus-insect cells

[8] = target: T6, MERS spike glycoprotein S1+S2 extracellular domain (MERS coronavirus, isolate EMC/2012 (by …, UniProt K0BRG7)); assay: ELISA
T6 construct: source: bought: Sino Biologicals, baculovirus-insect cells

B1: FD 6D (antibody, V domains shown)
VH: EVQLVESGPGLVKVSETLFLTCTVSGYSIGSGNYWGWIRQPPGKVLEWIGSTYHSGTTYYNPSLKSRVTISVDSSKNQFSLKLTSVTAADTAVYYCARDRLLAVHYDSRGYLVDYWGQGTMVTVSS
VL: AIRMTQSPDSLAVSLGERATINCKSSQSIFYSSNNKNYLAWYQHKPGQPPKLLIYWASTRESGVPDRFSGSGSGTDFTLTISSLQAEDVAIYYCQQYYDIPRTFGQGTKVEIR
notes: source: HEK293T, transfected; culture supernatant or purified
OD450 [1]: 1.19 OD450
OD450 [2]: 1.73 OD450

B2: FD 11E (antibody, V domains shown)
VH: EVQLVESGGGLVKPGGSLRLSCAASGFTFSSYSMNWVRQAPGKGLEWVSSISSSSSYIYYADSVKGRFTISRDNAKNSLYLQMNSLRAEDTAVYYCASLAAAGPETYYYYGMDVWGQGTMVTVSS
VL: not shown
notes: as for B1
PRNT EC50, wild-type SARS-CoV-2 (hCoV-19/England/02/2020) on Vero E6 cells [3]: 70 nM
binding result [4]: no binding
binding result [5]: no binding

B3: FD 1E (antibody, V domains shown)
VH: EVQLLESGGGLVKPGGSLRLSCAASGFTFSSYSMNWVRQAPGKGLEWVSSISSSSSYIYYADSVKGRFTISRDNAKNSLYLQMNSLRAEDTAVYYCASLAAAGPETYYYYGMDVWGQGTMVTVSS
VL: not shown
notes: as for B1
PRNT EC50, wild-type SARS-CoV-2 (hCoV-19/England/02/2020) on Vero E6 cells [3]: 110 nM

B4: EZ 4C-1 (antibody, V domains shown)
VH: EVQLVESGPGLVKPSETLSLTCTVSGGSVSSGNNYWSWIRQPPGKALEWIGYIYYSGSTKYNPSLKSRVTMSVGTSKNQFSLKVNSVTAADTAMYYCARAPSAPFGGLFDWILPKGINNWGQGTLVTVSS
VL: EIVLTQSPSTLSASVGDRVTITCRTSQSIRSWLAWYQQKPGKAPKLLIFEASTLESGVPERFSGSGSGAEFTLTISSLQPDDFATYYCQQYNGYSYSFGQGTKVEIR
notes: as for B1
OD450 [2]: 0.6 OD450

B5: EZ 11A (antibody, V domains shown)
VH: EVQLVESGGGLVQPGGSLRLSCAASGFTFSSYWMSWVRQAPGKGLEWVANIKQDGSEKYYVDSVKGRFTISRDNAKNSLYLQMNSLRAEDTAVYYCARDDYSGSYYWEFDYWGQGTLVTVSS
VL: QPVLTQSPSASASLGASVKLTCTLSSGHSSYAIAWHQQQPEKGPRYLMKLNSDGSHSKGDGIPDRFSGSSSGAERYLTISSLQSEDEADYYCQTWGTGIWVFGGGTKLTVL
notes: as for B1
OD450 [1]: 1.31 OD450
OD450 [2]: 1.29 OD450

B6: FN 2C (antibody, V domains shown)
VH: EVQLLESGGGVVQPGRSLRLSCAASGFNFNNYGMHWVRQAPGKGLEWVATISYEGSKKFYVDSVKGRFTISKDNSKNTLYLQMNSLRVDDTAFYYCAKRREIFWLGEPPLSDAFDFWGQGTMVTVSS
VL: QSVLTQPPSVSGAPGQRVTISCTGSGSNIGAGYDVHWYQFLPGTAPQLLIYGNNNRPSGVPDRFSGSKSGTSASLAITGLQAEDEADYYCQSYDSSLSGSVFGGGTKLTVL
notes: as for B1
OD450 [6]: 2.2 OD450
OD450 [7]: 1.15 OD450

B7: FJ 1C (antibody, V domains shown)
VH: QVQLQESGPGLVKPSETLSLTCTVSGYSISSGYYWGWIRQPPGKGLEWIGSIYHSGSTYYNPSLKSRVTISVDTSKNQFSLKLSSVTAADTAVYYCARDKALLWFGELFTNLFDYWGQGTLVTVSS
VL: QSALTQPASVSGSPGQSITISCTGTSSDVGGYNYVSWYQQHPGKAPKLMIYEVSNRPSGVSNRFSGSKSGNTASLTISGLQAEDEANYYCSSYTSSSTLVFGGGTKLTVL
notes: as for B1
PRNT EC50, wild-type SARS-CoV-2 (hCoV-19/England/02/2020) on Vero E6 cells [3]: 55.5 nM
binding result [4]: no binding
binding result [5]: binds

B8: EW 9C (antibody, V domains shown)
VH: EVQLVESGGGVVQPGASLRLSCVASGFTFNNFGFHWVRQAPGKGLEWLAVISYEGSKTYYAESLKGRFTISRDTSKNTVYLQMNSLRAEDTAVYYCARATSIFWFGEGRNWFDPWGQGTMVTVSS
VL: EIVLTQSPGTVSLSAGERATLSCRASQNVGTDLAWYVQRPGQAPRLLIYDTSNKATGIPARFSGRGSGTDFTLTIDSLEPEDFAVYYCQQRSNWPLTFGGGTKVEIR
notes: as for B1
OD450 [6]: 1.82 OD450
OD450 [7]: 1.17 OD450
PRNT EC50, wild-type SARS-CoV-2 (hCoV-19/England/02/2020) on Vero E6 cells [3]: 133 nM

B9: EY 2A (antibody, V domains shown)
VH: QVQLVESGAEVTKPGDSLIISCKGSGYAFTQYWIGWVRQKPGKGLEWMAMVYPDSSAVFAGGASGVRYRPPFQGQVTISADTSVNTAYLQWDSLKASDTAMYYCVRQERGSNTWYAGNSWGQGTLVTVSS
VL: DIVMTQSPLSLPVSPGEPASISCRSSQSLLHTDAYNYLDWYLQKPGQSPQLLIYLGSTRASGVPDRFSGSGSGTDFTLKISSVKAEDVGVYYCMQALQTPGTFGQGTKLEIK
notes: as for B1
OD450 [1]: 1.13 OD450
OD450 [2]: 1.28 OD450

B10: EY 3B (antibody, V domains shown)
VH: EVQLVESGAEVTKPGESLIISCKGSGYAFTQYWIGWVRQKPGKGLEWMAMVYPDSSAVFAGGASGVRYRPPFQGQVTISADTSVNTAYLQWDSLKASDTAMYYCVRQERGSNTWYAGNSWGQGTLVTVFS
VL: EIVLTQSPLSLPVSPGEPASISCRSSQSLLHTDAYNYLDWYLQKPGQSPQLLIYLGSTRASGVPDRFSGSGSGTDFTLKISSVKAEDVGVYYCMQALQTPGTFGQGTKVEIR
notes: as for B1
OD450 [1]: 1 OD450
OD450 [2]: 1.22 OD450

B11: FJ 4E (antibody, V domains shown)
VH: QVQLVESGPGLVKPSETLSLTCSVSGGSISSGTYYWSWIRQQPGKGLEWIGYIYNTGRPYYNPFLKSRITISVDSSKNQFSLKLTSVTAADTAVYYCARDEYDSSDSGIQGHWFDPWGQGTLVTVSS
VL: AIRMTQSPSSLSASVGDRVTITCRTSQNINSFLNWYQQKPGKGPNLLIYGAFTLQSGVPSRFSGSGSGTDFTLTISSLQPEDFATYFCQQSYSTPWTFGQGTKVEIK
notes: as for B1
OD450 [6]: 1.68 OD450
OD450 [8]: 1.08 OD450
OD450 [7]: 0.91 OD450
binding result [4]: no binding
binding result [5]: no binding

B12: EZ 4A (antibody, V domains shown)
VH: EVQLVQSGAEVKKPGESLKISCKGSGYSFTSYWIGWVRQMPGKGLEWMGIIYPGDSDTRYSPSFQGQVTISADKSISTAYLQWSSLKASDTAMYYCARSPIAADLFDYWGQGTLVTVSS
VL: not shown
notes: as for B1
OD450 [2]: 1.03 OD450

B13: FB 1E (antibody, V domains shown)
VH: EVQLVESGAEVKKPGESLKISCQGSGYRFNSYWIAWVRQMPGKGLEWMGSIFPTDSDIRYNPSFQGQVTISADKSISIAYLQWSSLKASDTAIYYCARHWASMVRGVIRASHYYGMDVWGQGTTVTVSS
VL: QSVLTQPPSASGSPGQSVTISCSGASSDIGDYNYVSWYQQLPGKAPKLLIYEVTKRPSGVPDRFSGSKSGNTASLTVSGLQADDEADYYCSSYAFGGSDIRVFGGGTKLAVL
notes: as for B1
OD450 [6]: 2.34 OD450
OD450 [8]: 1.01 OD450
OD450 [7]: 1.2 OD450
PRNT EC50, wild-type SARS-CoV-2 (hCoV-19/England/02/2020) on Vero E6 cells [3]: 36 nM

B14: FB 9D (antibody, V domains shown)
VH: QVQLVESGAEVKKPGESLKISCQGSGYRFNSYWIAWVRQMPGKGLEWMGSIFPTDSDVRYNPSFQGQVTISADKSISFAYLQWSSLKASDTAIYYCARHWASMVRGVIRASHYYGMDVWGQGTTVTVSS
VL: QPVLTQPPSASGSPGQSVTISCSGASSDIGKYNYVSWYQQLPGKAPKLLIYEVTKRPSGVPDRFSGSKSGNTASLTVSGLQADDEADYYCSSYAFGGSDTRVFGGGTKLTVL
notes: as for B1
OD450 [6]: 2.13 OD450
OD450 [8]: 1.5 OD450
OD450 [7]: 1.27 OD450
binding result [4]: no binding
binding result [5]: no binding

B15: FD 10A (antibody, V domains shown)
VH: EVQLVESGGGLVQPGGSLRLSCAASGFTFSSYWMHWVRQAPGKGLVWVSRINSDGSSTSYADSVKGRFTISRDNAKNTLYLQMNSLRAEDTAVYYCANMAFDIWGQGTMVTVSS
VL: not shown
notes: as for B1
OD450 [7]: 1.32 OD450
PRNT EC50, wild-type SARS-CoV-2 (hCoV-19/England/02/2020) on Vero E6 cells [3]: 111 nM
binding result [4]: no binding
binding result [5]: no binding
